Assay [1] concerns the target T1, Glycine max agglutinin (Glycine max, UniProt P05046 33-285, biotinylated).
T1 construct: Lectin; also called SBA
The assay can be described thus: biotinylated lectin blot of shed proteins.
Description: (§1) In order to determine the nature of the carbohydrates present, SP were probed with a panel of biotinylated lectins of varying sugar specificity (Table 1).

Assay [2] addresses T2, Ulex europeus agglutinin-1 (Ulex europeus, UniProt P22972 1-243, biotinylated).
T2 construct: Lectin; also called UEA-1
T2 sequence: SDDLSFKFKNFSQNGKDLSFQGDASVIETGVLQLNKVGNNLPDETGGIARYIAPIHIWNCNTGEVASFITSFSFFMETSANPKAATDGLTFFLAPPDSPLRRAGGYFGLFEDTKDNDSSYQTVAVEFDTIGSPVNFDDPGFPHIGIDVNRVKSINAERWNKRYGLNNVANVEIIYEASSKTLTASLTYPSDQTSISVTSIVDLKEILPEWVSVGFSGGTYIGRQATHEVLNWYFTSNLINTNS
The assay can be described thus: biotinylated lectin blot of shed proteins.
Description: as §1

T1 sequence (P05046 33-285 limits assumed): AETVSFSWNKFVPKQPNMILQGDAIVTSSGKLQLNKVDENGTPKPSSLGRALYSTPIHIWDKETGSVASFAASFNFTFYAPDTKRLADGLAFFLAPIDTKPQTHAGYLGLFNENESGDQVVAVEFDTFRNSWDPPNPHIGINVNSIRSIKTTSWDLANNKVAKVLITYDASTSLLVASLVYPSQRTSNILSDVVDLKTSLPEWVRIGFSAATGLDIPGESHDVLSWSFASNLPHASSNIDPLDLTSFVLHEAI

B1: gp40 (native 40 kDa glycoprotein of Cryptosporidium parvum) (other)
chain: DVPVEGSSSSSSSSSSSSSSSSSSSTSTVAPANKARTGEDAEGSQDSSGTEASGSQGSEEEGSEDDGQTSAASQPTTPAQSEGATTETIEATPKEECGTSFVMWFGEGTPAATLKCGAYTIVYAPIKDQTDPAPRYISGEVTSVTFEKSDNTVKIKVNGQDFSTLSANSSSPTENGGSAGQASSRSRRSLSE
modifications: native glycoprotein: O-linked glycans with terminal α-linked GalNAc on Ser/Thr
notes: Native protein from oocysts, sporozoites, shed proteins or HPA-purified lysate; also called 40,000 Mr peptide; 40 kDa band
Take B1: the binding result in assay [1] and in assay [2] was “binds” each time.
